The values that follow come from article PMC8187860, “Substitution of a Surface-Exposed Residue Involved in an Allosteric Network Enhances Tryptophan Synthase Function in Cells” (Frontiers in Molecular Biosciences, 2021).

Test [1] has as its target T1, Escherichia coli tryptophan synthase alpha subunit (αTS), A198W variant (E. coli, UniProt P0A877 1-268, A198W).
T1 sequence: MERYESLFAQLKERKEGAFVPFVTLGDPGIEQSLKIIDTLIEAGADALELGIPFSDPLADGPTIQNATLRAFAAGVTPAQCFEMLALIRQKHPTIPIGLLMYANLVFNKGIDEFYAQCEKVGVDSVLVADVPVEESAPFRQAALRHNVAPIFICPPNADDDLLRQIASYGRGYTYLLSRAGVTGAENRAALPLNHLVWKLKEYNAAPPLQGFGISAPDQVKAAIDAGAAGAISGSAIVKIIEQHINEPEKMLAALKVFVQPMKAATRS
In words: ITC. In general terms: In ITC the heat of successive injections is recorded.

Test [2] concerns the target T2, Escherichia coli tryptophan synthase beta subunit (βTS) (E. coli, UniProt P0A879 1-397).
T2 construct: tryptophan synthase beta subunit (βTS), E. coli; No removal of the hexahistidine tag is mentioned; also called beta subunit of TS; source: E. coli BL21 (DE3*), purified (Ni-NTA, S200 size exclusion)
T2 sequence (looked up): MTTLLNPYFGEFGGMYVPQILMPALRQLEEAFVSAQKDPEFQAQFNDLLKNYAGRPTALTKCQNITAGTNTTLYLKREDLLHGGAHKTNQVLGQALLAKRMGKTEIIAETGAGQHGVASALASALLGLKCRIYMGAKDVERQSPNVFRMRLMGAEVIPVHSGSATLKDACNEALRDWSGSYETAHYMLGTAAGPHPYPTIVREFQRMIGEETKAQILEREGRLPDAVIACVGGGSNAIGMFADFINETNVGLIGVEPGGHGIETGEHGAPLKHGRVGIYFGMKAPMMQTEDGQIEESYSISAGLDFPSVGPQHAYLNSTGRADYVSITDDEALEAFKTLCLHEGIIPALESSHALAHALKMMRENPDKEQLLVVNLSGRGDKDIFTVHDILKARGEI
In words: ITC; αTS subunit (WT or A198W) binding to the βTS subunit; which protein was titrated, buffer and temperature are not told in the main text (Supplementary Figure 5). As to conditions: both partners purified.

Test [3] concerns the target T2, Escherichia coli tryptophan synthase …. In words: cell-based or functional assay.

B1: Escherichia coli tryptophan synthase beta subunit (βTS) (enzyme)
chain: MTTLLNPYFGEFGGMYVPQILMPALRQLEEAFVSAQKDPEFQAQFNDLLKNYAGRPTALTKCQNITAGTNTTLYLKREDLLHGGAHKTNQVLGQALLAKRMGKTEIIAETGAGQHGVASALASALLGLKCRIYMGAKDVERQSPNVFRMRLMGAEVIPVHSGSATLKDACNEALRDWSGSYETAHYMLGTAAGPHPYPTIVREFQRMIGEETKAQILEREGRLPDAVIACVGGGSNAIGMFADFINETNVGLIGVEPGGHGIETGEHGAPLKHGRVGIYFGMKAPMMQTEDGQIEESYSISAGLDFPSVGPQHAYLNSTGRADYVSITDDEALEAFKTLCLHEGIIPALESSHALAHALKMMRENPDKEQLLVVNLSGRGDKDIFTVHDILKARGEI
For the molecule B1, in test [1], the equilibrium dissociation constant (Kd) (commonly the constant that tells how readily two partners part at equilibrium) stood at 28 nM. This counts as double-digit nanomolar.

B2: Escherichia coli tryptophan synthase alpha subunit (αTS), wild type (enzyme, E. coli, UniProt P0A877 1-268, looked up)
chain: MERYESLFAQLKERKEGAFVPFVTLGDPGIEQSLKIIDTLIEAGADALELGIPFSDPLADGPTIQNATLRAFAAGVTPAQCFEMLALIRQKHPTIPIGLLMYANLVFNKGIDEFYAQCEKVGVDSVLVADVPVEESAPFRQAALRHNVAPIFICPPNADDDLLRQIASYGRGYTYLLSRAGVTGAENRAALPLNHLVAKLKEYNAAPPLQGFGISAPDQVKAAIDAGAAGAISGSAIVKIIEQHINEPEKMLAALKVFVQPMKAATRS
notes: tryptophan synthase alpha subunit (αTS, product of trpA), E. coli; Axe et al., 2014) for the construct and its purification; also called WT αTS; WT; source: E. coli BL21 (DE3*), purified as previously (Axe and Boehr, 2013; Axe et al., 2014; O'Rourke et al., 2019
In test [2], B2 displayed a Kd of about 25 nM.

B3: Escherichia coli tryptophan synthase alpha subunit (αTS), A198W variant (enzyme, E. coli, UniProt P0A877 1-268, looked up)
chain: MERYESLFAQLKERKEGAFVPFVTLGDPGIEQSLKIIDTLIEAGADALELGIPFSDPLADGPTIQNATLRAFAAGVTPAQCFEMLALIRQKHPTIPIGLLMYANLVFNKGIDEFYAQCEKVGVDSVLVADVPVEESAPFRQAALRHNVAPIFICPPNADDDLLRQIASYGRGYTYLLSRAGVTGAENRAALPLNHLVWKLKEYNAAPPLQGFGISAPDQVKAAIDAGAAGAISGSAIVKIIEQHINEPEKMLAALKVFVQPMKAATRS
notes: tryptophan synthase alpha subunit (αTS, product of trpA), E. coli, with the substitution A198W; Made by QuikChange site-directed mutagenesis of the wild-type αTS plasmid; also called A198W αTS; source: E. coli BL21 (DE3*), purified as previously (Axe and Boehr, 2013; Axe et al., 2014; O'Rourke et al., 2019)
With B3, in test [3], the “kcat/KM of the full TS complex reaction (production of tryptophan from IGP, 290 nm; 50 µM α2β2 TS complex)” value came out at 9900 M⁻¹ s⁻¹ and the “kcat/KM of the βTS assay in the presence of αTS (production of tryptophan from indole, 290 nm; 0.5 µM α2β2 TS complex)” value is 190000 M⁻¹ s⁻¹. The molecule further gave a dissociation constant (Kd) in test [2] of about 25 nM.
